In test [1] the target is T1, human endothelin receptor A (hETAR) (human, UniProt P25101 21-427).
T1 construct: GenBank AAB20278; co-expressed with Aequorin in the calcium flux assay; also called human ETAR; CHO-DHFR-hETAR
T1 sequence: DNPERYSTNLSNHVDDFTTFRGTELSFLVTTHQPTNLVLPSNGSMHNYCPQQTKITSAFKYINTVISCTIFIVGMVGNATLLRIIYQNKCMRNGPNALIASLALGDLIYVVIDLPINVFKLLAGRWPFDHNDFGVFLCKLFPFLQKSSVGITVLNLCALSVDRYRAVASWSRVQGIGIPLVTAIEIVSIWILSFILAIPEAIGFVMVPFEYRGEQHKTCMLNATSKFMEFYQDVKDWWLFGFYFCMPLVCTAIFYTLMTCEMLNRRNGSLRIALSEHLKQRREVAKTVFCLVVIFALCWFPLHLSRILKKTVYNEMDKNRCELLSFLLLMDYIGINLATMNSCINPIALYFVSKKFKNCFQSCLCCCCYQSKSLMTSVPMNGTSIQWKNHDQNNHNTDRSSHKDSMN
Nature of the test: FACS on CHO-DHFR-ETAR cells. The method, then: 10⁵ CHO-DHFR-hETAR cells were digested and collected with PBS containing 10 mM EDTA, separately added into 1.5 mL EP tubes, the supernatant was discarded after centrifugation, and the negative control sample was resuspended in a flow loading buffer (PBS, 2% FBS). Positive treatment group cells in each tube were added with 200 μL of the antibody supernatant, and incubated at room temperature; after the completion of the incubation, the cells were centrifuged at 1500 rpm, the supernatant was discarded, the cell precipitate was washed once with a flow loading buffer, and centrifuged again, and the cells were resuspended; 1:50 diluted FITC labeled goat anti-mouse fluorescent secondary antibody (BD Pharmingen) was added to the cell resuspension solution at 200 μL/well, and the cells were incubated at room temperature for 30 min in the dark; and the cells were centrifuged, the supernatant was discarded, the cell was washed once with a flow loading buffer, and centrifuged, the cell precipitate was resuspended with a flow loading buffer for on-machine detection. The supernatant expressing recombinant anti-ETAR functional antibody was specifically bound to CHO-DHFR-ETAR cells expressing ETAR. The gray peaks and dotted line peaks were negative controls; and the solid line peak corresponding to the hybridoma cell supernatant shifted obviously to the right.

The target in test [2] is T1, human endothelin receptor A (hETAR). Nature of the test: cell-based or functional assay.

The values below come from patent US20260125484A1 (GMAX BIOPHARM, published 2026).

B1: ETAR antibody A-2 (antibody, mouse IgG1, V domains shown)
VH: QIQLVQSGAELAKPGASVRMSCETSGYTFTSYWIHWIKERPGQGLEWIGYINPDTDYSEYNQKFKDKARLTADKSSTTAYMELNSLTFDDSAVYYCASAGYYFFDFWGQGTTLTVSS
VL: DIQMTQSPASLSTSVGETVTITCRASENIYSYLAWYQQRQGKSPHLLVNNAKTLAEGVPSRFSGSGSGTHFSLRISGLQPEDFGSYYCQHHYGIPFTFGGGTKLSIKR
notes: also called L2H2
As for B1, in test [1], the binding result is on record as “binds”.

B2: ETAR antibody A-9 (antibody, mouse IgG1, V domains shown)
VH: EVQLQQPGGGLVQPGGSLTLSCATSGFTFSSYGMSWVRQTPAKRLELVATISTNGATANYPDSVKGRFTISRDNAKSTLYLQMRSLKSEDTAMYYCATEKGAMGYWGQGTSVTVSS
VL: DVLMTQTPLSLPVSLGDQASISCRSSQNIVHSTGNTYLEWYLQKPGQSPKLLIYKVSNRFSGVPNRFRGSGSGTDFTLKITRVEAEDLGIYYCFQGSHFPFTFGSGTKLEIKR
In the case of B2, the “IC50, calcium flux inhibition curve” value in test [2] turned out to be 88 nM.

B3: ETAR antibody A-7 (antibody, mouse IgG1, V domains shown)
VH: EVHLVESGGGLVQPGGSLKLSCAASGFTFSTYGMSWVRQTPDKRLELVATINTNGGTTYYRDSVKGRFTISRDNAKNTLYLQMSSLKSDDTAMYYCARDYGAMDYWGQGTSVTVSS
VL: DVLMTQTPLSLPVSLGDHASISCRSSQYIVHSTGTTYLEWYLQKPGQSPQLLIYKVSNRFSGVPDRFTGSGSGTDFTLRISRVEAEDLGVYFCFQGSHFPFTFGSGTKLEIKR
notes: also called L7H7
In the case of B3, the binding result in test [1] is “binds”.

B4: ETAR antibody A-12 (antibody, mouse IgG1, V domains shown)
VH: EVKLVESGGRLVQPGNSLRLSCATSGFTFSDYYMSWVRQTPGRALEWLSFIRNRANGYTTEYSASVKGRFTISRDNSQSILYLHMSTLRPEDSATYYCVRDSYHYGYFDVWGAGTTVTVSS
VL: EIQMTQTPSSLSASLGDRVTITCSASQGINNYLNWYQQKPGGKTRLLIYYTSTLQSGVPSRFSGSGSGTHYSLTISNLEPEDIATYYCQQFSKLRTFGGGTRLEIKR
notes: also called L12H12
With B4, the binding result in test [1] was “binds”.
